Assay results from the RNAGym collection of RNA variant scans (doi:10.1073/pnas.2313332121).

B1: TPR t1 (parent)
chain: GACCAAUCUGCCCUCAGAGCUCGAGAACAUCUUCGGAUGCAGAGGAGGCAGGCUUCGGUGGCGCGAUAGCGCCAACGUCCUCAACCUCCAAUGCAUCCCACCACAUGAUGAUGCCUGAAGAGCCUUGGUUUUUUG

Variants of: B1
Experiment: polymerase ribozyme fitness, log enrichment relative to wild type (log ratio); higher = more active; in vitro selection for triplet polymerase activity
Summary of the method: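 For each subunit of a heterodimeric triplet polymerase ribozyme, a mutant library was built by PCR and transcribed, then taken through a single in vitro selection round in triplicate. Selection involved annealing to a biotinylated primer, the partner subunit and triplets, incubation frozen at −7 °C, gel excision of extended constructs, capture on streptavidin beads and RT-PCR. Genotypes were retained after Illumina sequencing of inputs and outputs only with ≥10 input reads and ≥1 read in each output. Fitness is defined as the logarithm of a genotype's enrichment relative to wild-type enrichment, using inverse-variance-weighted averages across replicates, with the logarithm taken to base 2.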

Row | Variant | polymerase ribozyme fitness (log ratio)
1 | GACCAAUCUGCCCUCAGAGCUCGAGAACAUCUUCGGAUGCAGAGGAGGCAGGCUUCGGUGGCGCGAUAGUGCCAACGUCCUCAACCUCCAAUGCAUCCCACCACAUGAUGAAGCCAGAAGAGCCUUGGUUUUUUG | -1.48
2 | GACCAAUCUGCCCUCAGAGCUCGAGAACAUCUUCGGAUGCAGAGGAGGCAGGCUUCGGUGGCGCGAUAGUGCCAACGUCCUCAACCUCCAAUGCAUCCCACCACAGGAUGAUGCCUGAAGAGCUUUGGUUUUUUG | -1.06
3 | GACCAAUCUGCCCUCAGAGCUCGAGAACAUCUUCGGAUGCAGAGGAGGCAGGCUUCGGUGGCGCGAUAGUGCCAACGUCCUCAACCCCAAAUGCAUCCCACCACAUGAUGAUGCCUGAACAGCCUUGGUUUUUUG | -2.9
4 | GACCAAUCUGCCCUCAGAGCUCGAGAACAUCUUCGGAUGCAGAGGAGGCAGGCUUCGGUGGCGCGAUAGUGCCAACGUCCUCAACCUCCAACGCAUUCCACCACAUGAUGAUGCCUGAAGAGUCUUGGUUUUUUG | -0.926
5 | GACCAAUCUGCCCUCAGAGCUCGAGAACAUCUUCGGAUGCAGAGGAGGCAGGCUUCGGUGGCGCGAUAGUGCCAACGUCCUCAACCUCCAAUGCAUCCCACCACAUGACGAUGCCUGAAGAGCCUUGGUUUUUUG | -3.68
6 | GACCAAUCUGCCCUCAGAGCUCGAGAACAUCUUCGGAUGCAGAGGAGGCAGGCUUCGGUGGCGCGAUAGUGCCAACGUCCUCAACCUCCAAUGCAUCCCACCACAUGAUGAUGCCUGAAGAGCCUCGGUUUUUUG | -0.89
7 | GACCAAUCUGCCCUCAGAGCUCGAGAACAUCUUCGGAUGCAGAGGAGGCAGGCUUCGGUGGCGCGAUAGUGCCAACGUCCUCAACCUCCAAUGCAUCCCACCACAUGAUGAUGCCUGAAGAGCCUGGGUUUUUUG | -3.3
8 | GACCAAUCUGCCCUCAGAGCUCGAGAACAUCUUCGGAUGCAGAGGAGGCAGGCUUCGGUGGCGCGAUAGUGCCAACGUCCUCAACCUCCAAUGCAUCCCACCACAUGAUGAGGCCUGAAGAGCCUUGGUUUUUUG | -0.342
9 | GACCAAUCUGCCCUCAGAGCUCGAGAACAUCUUCGGAUGCAGAGGAGGCAGGCUUCGGUGGCGCGAUAGUGCCAACGUCCUCAACCCCCAAUGCAUCCCACCACAUGAUGAUGCCUGAAGAGGCUUGGUUUUUUG | 2.6
10 | GACCAAUCUGCCCUCAGAGCUCGAGAACAUCUUCGGAUGCAGAGGAGGCAGGCUUCGGUGGCGCGAUAGUGCCAACGUCCUCAACCACCAAUGCAUUCCACCACAUGAUGAAGCUUGAAGAGCCUUAGUUUUUUG | -4.04
11 | GACCAAUCUGCCCUCAGAGCUCGAGAACAUCUUCGGAUGCAGAGGAGGCAGGCUUCGGUGGCGCGAUAGUGCCAACGUCCACAACCUCCAAUGCAUCCCACCACAUGAUGAUGCCGGAAGAGCCAUGGUUUUUUG | -5.57
12 | GACCAAUCUGCCCUCAGAGCUCGAGAACAUCUUCGGAUGCAGAGGAGGCAGGCUUCGGUGGCGCGAUAGUGCCAACGUCCUCAACCGCCAAUGCAUCCCACCACAUGAUGAUGCCUGAACAGCCUUGGUUUUUUG | 1.04
13 | GACCAAUCUGCCCUCAGAGCUCGAGAACAUCUUCGGAUGCAGAGGAGGCAGGCUUCGGUGGCGCGAUAGUGCCAACGUCCUCAACCUCCAAAGCAUCCCACCACAUGAUGAUGCCUGAAGAGCCUUGGUUUUUUG | -4.11
14 | GACCAAUCUGCCCUCAGAGCUCGAGAACAUCUUCGGAUGCAGAGGAGGCAGGCUUCGGUGGCGCGAUAGUGCCAACGUCCUCAACCUCCAAUGCACCCUACUACAUGAUGAUGCCUGAAGAGCCUUGGUUUUUUG | -6.59
15 | GACCAAUCUGCCCUCAGAGCUCGAGAACAUCUUCGGAUGCAGAGGAGGCAGGCUUCGGUGGCGCGAUAGUGCCAACGUCCUCAACCUCCAAUGCAUCCCACCACAAGAGGAUGCCUGAAGAGCCUUGGUUUUUUG | -4.62
16 | GACCAAUCUGCCCUCAGAGCUCGAGAACAUCUUCGGAUGCAGAGGAGGCAGGCUUCGGUGGCGCGAUAGUGCCAACGUCCUCAACCUCCAAUGCAUCCCACCACAUGAUGAUGCCUGAAGAGCCUUGGAUUUUUG | -1.55
17 | GACCAAUCUGCCCUCAGAGCUCGAGAACAUCUUCGGAUGCAGAGGAGGCAGGCUUCGGUGGCGCGAUAGUGCCAACGUCCUCAACCUCCAAUGCACUCCACCAAAUGAUGAUGCCUGAAGAGCCUUGGUUUUUUG | -5.19
18 | GACCAAUCUGCCCUCAGAGCUCGAGAACAUCUUCGGAUGCAGAGGAGGCAGGCUUCGGUGGCGCGAUAGUGCCAACGUCCUCAACCUCCAAUGCAGCCCACCACAUGAUGAUGCCUGAAGAGCCAUGGUUUUUUG | -1.32
19 | GACCAAUCUGCCCUCAGAGCUCGAGAACAUCUUCGGAUGCAGAGGAGGCAGGCUUCGGUGGCGCGAUAGUGCCAACGUCCUCAACCGCCAAUGCAUCCCACCACAUGAUGAUGCCUGAAGAGCCUUGGUUUUUUG | -0.364
20 | GACCAAUCUGCCCUCAGAGCUCGAGAACAUCUUCGGAUGCAGAGGAGGCAGGCUUCGGUGGCGCGAUAGUGCCAACGUCCUCAACCUCCAAUGCAUCCCACCACAUGAUGAUGCCUGAAGAGCCGUAGUUUUUUG | -1.83
21 | GACCAAUCUGCCCUCAGAGCUCGAGAACAUCUUCGGAUGCAGAGGAGGCAGGCUUCGGUGGCGCGAUAGUGCCAACGUCCCCAACCUCCAAUGCAUCCAACCACAUGAUGAAGCCUGAAGAGCCCUGGUUUUUUG | -6.54
